Where a chain is given by its changes, count along the chain named.
B1: 1 [Sybody 1] (VHH)
VHH: QVQLVESGGGLVQAGGSLRLSCAASGFPVYSRHMYWYRQAPGKEREWVAAIASQGMKTWYADSVKGRFTISRDNAKNTVYLQMNSLKPEDTAVYYCNVKDTGQWWGLYDYWGQGTQVTVSA
B2: 2 [Sybody 2] (VHH)
VHH: QVQLVESGGGLVQAGGSLRLSCAASGFPVNTRTMHWYRQAPGKEREWVAAIYSSGQNTFYADSVKGRFTISRDNAKNTVYLQMNSLKPEDTAVYYCNVKDWGNIWEYDYWGQGTQVTVSA
B3: 3 [Sybody 3] (VHH)
VHH: QVQLVESGGGLVQAGGSLRLSCAASGFPVWAAYMFWYRQAPGKEREWVAAIGSTGWYTRYADSVKGRFTISRDNAKNTVYLQMNSLKPEDTAVYYCHVKDAGWNWWAYDYWGQGTQVTVSA
B4: 6 [Sybody 6] (VHH)
VHH: QVQLVESGGGLVQAGGSLRLSCAASGFPVYATWMYWYRQAPGKEREWVAAISSTGWSTYYADSVKGRFTISRDNAKNTVYLQMNSLKPEDTAVYYCNVKDVGFWWDQYDYWGQGTQVTVSA
B5: 19 [Sybody 19] (VHH)
VHH: QVQLVESGGGSVQAGGSLRLSCAASGNIHAINYLGWFRQAPGKEREGVAALDTWVGYTYYADSVKGRFTVSLDNAKNTVYLQMNSLKPEDTALYYCAAAEWGWQGPLKMRAYEYWGQGTQVTVSA
B6: 20 [Sybody 20] (VHH)
VHH: QVQLVESGGGSVQAGGSLRLSCAASGNIWTIRYLGWFRQAPGKEREGVAALDTASGSTYYADSVKGRFTVSLDNAKNTVYLQMNSLKPEDTALYYCAAAWWGYTVPLMWQHYYYWGQGTQVTVSA
B7: 23 [Sybody 23] (VHH)
VHH: QVQLVESGGGSAQAGGSLRLSCAASGNIAHIYYLGWFRQAPGKEREGVAALMTFTGWTYYADSVKGRFTVSLDNAKNTVYLQMNSLKPEDTALYYCAAATHGNWNPLQSDRYQYWGQGTQVTVSA
B8: 24 [Sybody 24] (VHH)
VHH: QVQLVESGGGSVQAGGSLRLSCAASGAIERIWYLGWFRQAPGKEREGVAALITFTGHTYYADSVKGRFTVSLDNAKNTVYLQMNSLKPEDTALYYCAAAYDGWFSPLTTRRYRYWGQGTQVTVSA
B9: 25 [Sybody 25] (VHH)
VHH: QVQLVESGGGSVQAGGSLRLSCAASGNIWDIRYLGWFRQAPGKEREGVAALETQYGYTYYADSVKGRFTVSLDNAKNTVYLQMNSLKPEDTALYYCAAADIGYYTPLIHVGWYSYWGQGTQVTVSA
B10: 30 [Sybody 30] (VHH)
VHH: QVQLVESGGGLVQAGGSLRLSCAASGFPVKSRRMYWYRQARGKEREWVAAIYSWGATTVYADSVKGRFTISRDNAKNTVYLQMNSLKPEDTAIYYCNVKDWGSWYQYYDYWGQGTQVTVSA
B11: 31 [Sybody 31] (VHH)
VHH: QVQLVESGGGLVQAGGSLRLSCAASGFPVSQNWMWWYRQAPGKEREWVAAISSKGQTTHYADSVKGRFTISRDNAKNTVYLQMNSLKPEDTAVYYCNVKDWGAYWYSYDYWGQGTQVTVSA
B12: 44 [Sybody 44] (VHH)
VHH: B3 VHH with W30D, A32T, Y33S, F35Y, G52N, R59E, H97N, A101Y, N104Y, W105Y
B13: 48 [Sybody 48] (VHH)
VHH: QVQLVESGGGLVQAGGSLRLSCAASGFPVRWHYMYWYRQAPGKEREWVAAISSHGTYTYYADSVKGRFTISRDNAKNTVYLQMNSLKPEDTAVYYCSVKDIGRWFSKYDYWGQGTQVTVSA
B14: 55 (VHH)
VHH: QVQLVESGGGLVQAGGSLRLSCAASGFPVAARWMRWYRQAPGKEREWVAAINSFGDYTEYADSVKGRFTISRDNAKNTVYLQMNSLKPEDTAVYYCNVKDYGSQWWAYDYWGQGTQVTVSA
B15: 57 (VHH)
VHH: B14 VHH with A30K, A31Q, R32K, F54N, K99R, S103D, W105L, W106F, A107E
B16: 58 (VHH)
VHH: B14 VHH with A30W, A31T, F54Y, K99R, Y101N, S103A, Q104Y, W106H, A107Y
B17: 66 (VHH)
VHH: QVQLVESGGGLVQAGGSLRLSCAASGFPVDTSYMYWYRQAPGKEREWVAAIWSWGQWTYYADSVKGRFTISRDNAKNTVYLQMNSLKPEDTAVYYCAVYVGQYYIGQGTQVTVSA
B18: 80 (VHH)
VHH: QVQLVESGGGSVQAGGSLRLSCAASGSISSITYLGWFRQAPGKEREGVAALFTWWGWTYYADSVKGRFTVSLDNAKNTVYLQMNSLKPEDTALYYCAAASEGMYWPLTKNHYSYWGQGTQVTVSA
B19: 87 (VHH)
VHH: QVQLVESGGGLVQAGGSLRLSCAASGFPVVHLSMAWYRQAPGKEREWVAAINSFGDHTHYADSVKGRFTISRDNAKNTVYLQMNSLKPEDTAVYYCNVKDSGWFWTQYDYWGQGTQVTVSA
B20: 88 (VHH)
VHH: B3 VHH with A31H, A32S, F35Y, R59T, H97N, A101Q, N104I, W105H, W106K, A107Q
B21: 89 (VHH)
VHH: QVQLVESGGGLVQAGGSLRLSCAASGFSVNYSYMYWYRQAPGKEREWVAAISSWGWYTVYADSVKGRFTISRDNAKNTVYLQMNSLKPEDTAVYYCNVKDRGNDDSSYDYWGQGTQVTVSA
B22: 94 (VHH)
VHH: QVQLVESGGGLVQAGGSLRLSCAASGFPVYKASMYWYRQAPGKEREWVAAINSKGWWTEYADSVKGRFTISRDNAKNTVYLQMNSLKPEDTAVYYCNVKDYGYEQLWYDYWGQGTQVTVSA
B23: 100 (VHH)
VHH: QVQLVESGGGLVQAGGSLRLSCAASGFPVAQRVMHWYRQAPGKEREWVAAIHSAGAQTFYADSVKGRFTISRDNAKNTVYLQMNSLKPEDTAVYYCNVKDDGKYYWLYDYWGQGTQVTVSA
B24: 101 (VHH)
VHH: B3 VHH with A32T, F35Y, Y57F, R59V, H97N, A101R, N104Q, W105T, W106A, A107Q
B25: 104 (VHH)
VHH: B14 VHH with A30W, A31N, R32S, F54Y, Y57H, S103E, Q104W, W106N, A107N
B26: 105 (VHH)
VHH: B14 VHH with A30Y, A31I, R32K, N52S, F54N, D56E, S103H, Q104T, W105Q, A107R
B27: 109 (VHH)
VHH: B14 VHH with A30G, A31H, R32K, F54H, D56E, Y57F, S103W, Q104T, W105A
B28: 111 (VHH)
VHH: QVQLVESGGGLVQAGGSLRLSCAASGFPVYSSWMRWYRQAPGKEREWVAAINSHGDYTEYADSVKGRFTISRDNAKNTVYLQMNSLKPEDTAVYSCNVKDHGYYMKHYDYWGQGTQVTVSA
B29: 116 (VHH)
VHH: B2 VHH with L11P
B30: 121 (VHH)
VHH: B28 VHH with Y30E, S31Q, H54W, D56E, S95Y, H101Q, Y104E, M105H, K106Q, H107R
B31: 134 (VHH)
VHH: B4 VHH with A31Q, W33Y, S52N, W56Y, S57F, Y59R, V101L, F103W, W105S, D106E
B32: 139 (VHH)
VHH: QVQLVESGGGSVQAGGSLRLSCAASGHIRWIKYLGWFRQAPGKEREGVAALYTYEGQTYYADSVKGRFTVSLDNAKNTVYLQMNSLKPEDTALYYCAAAYFGAFYPLSYDAYYYWGQGTQVTVSA
B33: 140 (VHH)
VHH: B3 VHH with A32T, F35Y, Y57F, R59V, H97N, A101Y, N104F, W105E, W106Y, A107R
B34: 143 (VHH)
VHH: QVQLVESGGGLVQAGGSLRLSCAASGFPVYSAVMYWYRQAPGKEREWVASIGSTGQHTYYADSVKGRFTISRDNAKNTVYLQMNSLKPEDTAVYYCNVKDVGEYMYWYDYWGQGTQVTVSA
B35: 146 (VHH)
VHH: QVQLVESGGGLVQAGGSLRLSCAASGFPVDTTNMHWYRQAPGKEREWVAAIHSSGTYTFYADSVKGRFTISRDNAKNTVYLQMNSLKPEDTAVYYCNVKDKGAHLWWYDYWGQGTQVTVSA

molecular target: chicken PHT1 (purified, wild type) (chicken)
Sequence (chain, as listed by the source): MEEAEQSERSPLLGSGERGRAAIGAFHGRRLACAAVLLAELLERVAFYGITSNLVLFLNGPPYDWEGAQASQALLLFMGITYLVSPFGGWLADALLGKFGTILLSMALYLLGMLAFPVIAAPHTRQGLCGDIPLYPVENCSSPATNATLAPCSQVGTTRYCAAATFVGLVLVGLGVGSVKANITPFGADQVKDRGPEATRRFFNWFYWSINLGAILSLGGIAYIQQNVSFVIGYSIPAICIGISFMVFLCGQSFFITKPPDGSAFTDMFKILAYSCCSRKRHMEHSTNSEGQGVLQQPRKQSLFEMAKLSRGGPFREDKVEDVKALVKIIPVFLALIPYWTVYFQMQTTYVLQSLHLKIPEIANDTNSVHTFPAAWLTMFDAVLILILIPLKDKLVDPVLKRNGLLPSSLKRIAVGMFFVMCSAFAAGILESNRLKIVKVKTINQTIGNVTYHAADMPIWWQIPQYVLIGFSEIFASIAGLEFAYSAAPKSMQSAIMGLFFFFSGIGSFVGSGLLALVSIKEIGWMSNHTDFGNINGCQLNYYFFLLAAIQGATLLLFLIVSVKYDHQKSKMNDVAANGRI

Binder	binding result
B1	binds
B2	binds
B3	binds
B4	binds
B5	binds
B6	binds
B7	binds
B8	binds
B9	binds
B10	binds
B11	binds
B12	binds
B13	binds
B14	binds
B15	binds
B16	binds
B17	binds
B18	binds

Binder	binding result
B19	binds
B20	binds
B21	binds
B22	binds
B23	binds
B24	binds
B25	binds
B26	binds
B27	binds
B28	binds
B29	binds
B30	binds
B31	binds
B32	binds
B33	binds
B34	binds
B35	binds
